Assays:
[1] = target: T1, c-Fms kinase in the U2OS-GFP-STAT1/CSF-1R cells (Homo sapiens, UniProt P07333); experiment: Dose-effect of hrM-CSF inducing GFP-STAT1 nuclear translocation in U2OS-GFP-STAT1/CSF-1R cells; type: cell-based; settings: 30 minutes
T1 construct: comprising full-length cDNA of human c-Fms; expressed in transfected cells; host or cells: human osteosarcoma U2OS cells stably expressing GFP-STAT1 (U2OS-GFP-STAT1/CSF-1R)
Method: In order to quantitatively detect the extent of nuclear translocation of GFP-STAT1 induced by hrM-CSF, in this Example, in Cell Analyzer 1000 or In Cell Analyzer 2000 was used to obtain the cell image of GFP-STAT1 nuclear translocation. The cell image obtained was analyzed by using Nuclear Trafficking Analysis Module, wherein the translocation index represents the extent of nuclear translocation of GFP-STAT1. Translocation index equals to the ratio of the mean fluorescence intensity of nucleus to the mean fluorescence intensity of cytoplasm of the cells obtained per well. The steps were as follows: • 1) seeding the cells to a 96-well culture plate (which was black and transparent at the bottom), culturing in an incubator at 37° C., 5% CO2, 80% humidity for 24 hours; • 2) washing the cell twice with serum-free DMEM medium that contains 4500 mg/L glucose, 4 mM L-glutamine, 0.2% BSA and 10 mM HEPES (hereafter referred to as cell analytic liquid), wherein the cell analytic liquid was added at 100 μL/well for each time; after that, adding 50 μL cell analytic liquid to each well; • 3) adding the cell analytic liquid that contains hrM-CSF at 50 μL/well, […], and incubating the cells in an incubator at 37° C. for 30 minutes; • 4) fixing the cells with 8% formaldehyde diluted with 1×PBS solution and preheated at 37° C. at 100 μL/well, and placing the plate in dark at room temperature for 20 minutes; • 5) discarding the cell fixation solution, adding 1×PBS solution that contains hoechst33342 at 200 μL/well, placing the plate in dark at room temperature for 30 minutes; • 6) obtaining the cell image by using In Cell Analyzer 1000, analyzing the extent of nuclear translocation of GFP-STAT1 by using Nuclear Trafficking Analysis Module. […]

[2] = target: T1, c-Fms kinase in the U2OS-GFP-STAT1/CSF-1R cells; experiment: Effect of the time for treating cells with hrM-CSF on GFP-STAT1 nuclear translocation; type: cell-based; settings: 200 ng/mL hrM-CSF; 0-60 minutes
Method: The steps were as follows: • 1) using the cells prepared in the example 1 to prepare a cell suspension of 1×10^5 cells/mL, seeding the cells to a 96-well culture plate (which was black and transparent at the bottom) at 100 μL/well; and culturing the cells in an incubator at 37° C., 5% CO2, 80% humidity for 24 hours; • 2) washing the cells twice with the cell analytic liquid at 100 μL/well for each time, discarding the solution, and adding the cell analytic liquid at 50 μL/well; • 3) adding hrM-CSF diluted with the cell analytic liquid every 5 minutes, to obtain a final concentration of 200 ng/mL, setting the cell analytic liquid containing no hrM-CSF as the control, incubating the cells in an incubator at 37° C., and treating the cells with the cytokine for 0, 5, 10, 15, 20, 25, 30, 35, 40, 45, 50, 55, 60 minutes, respectively; • 4) adding the cell fixation solution preheated at 37° C. at 100 μL/well, slightly shaking the culture plate to mix the mixture uniformly, and placing the plate in dark at room temperature for 20 minutes; • 5) discarding the solution, adding 1×PBS solution that contains hoechst33342 at 200 μL/well, and placing the plate in dark at room temperature for 30 minutes; and • 6) obtaining the cell image by using In Cell Analyzer 2000, and analyzing the extent of nuclear translocation of GFP-STAT1 by using Nuclear Trafficking Analysis Module.

T1 sequence (P07333 20-972): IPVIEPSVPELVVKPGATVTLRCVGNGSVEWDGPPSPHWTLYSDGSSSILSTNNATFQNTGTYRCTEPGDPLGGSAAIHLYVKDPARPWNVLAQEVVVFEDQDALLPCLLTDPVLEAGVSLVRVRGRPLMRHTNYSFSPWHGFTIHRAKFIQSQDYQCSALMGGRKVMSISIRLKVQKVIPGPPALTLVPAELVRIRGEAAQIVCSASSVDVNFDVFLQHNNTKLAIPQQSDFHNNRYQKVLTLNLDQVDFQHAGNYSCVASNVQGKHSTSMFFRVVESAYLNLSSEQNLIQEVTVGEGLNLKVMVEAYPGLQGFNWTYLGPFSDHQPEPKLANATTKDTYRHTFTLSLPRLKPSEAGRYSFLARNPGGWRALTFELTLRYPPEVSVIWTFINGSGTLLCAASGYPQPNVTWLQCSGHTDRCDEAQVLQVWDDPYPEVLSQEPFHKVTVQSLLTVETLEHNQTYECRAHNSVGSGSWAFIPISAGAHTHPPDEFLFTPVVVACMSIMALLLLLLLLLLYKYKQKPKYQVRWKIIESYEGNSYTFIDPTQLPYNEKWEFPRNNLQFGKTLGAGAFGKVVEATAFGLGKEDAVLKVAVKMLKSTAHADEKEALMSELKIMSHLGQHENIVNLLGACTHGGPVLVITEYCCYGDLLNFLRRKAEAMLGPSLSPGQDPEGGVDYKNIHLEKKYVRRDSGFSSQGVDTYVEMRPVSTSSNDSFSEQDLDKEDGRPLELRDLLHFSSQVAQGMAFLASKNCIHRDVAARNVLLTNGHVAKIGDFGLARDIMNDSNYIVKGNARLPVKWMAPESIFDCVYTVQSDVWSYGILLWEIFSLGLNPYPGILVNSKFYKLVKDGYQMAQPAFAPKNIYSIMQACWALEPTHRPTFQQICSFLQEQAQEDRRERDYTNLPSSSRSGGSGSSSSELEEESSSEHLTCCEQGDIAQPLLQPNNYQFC

B1: hrM-CSF: recombinantly expressed human M-CSF (macrophage colony stimulating factor), ligand activating c-Fms (protein, UniProt P09603 33-554, looked up)
Macrophage colony-stimulating …: EEVSEYCSHMIGSGHLQSLQRLIDSQMETSCQITFEFVDQEQLKDPVCYLKKAFLLVQDIMEDTMRFRDNTPNAIAIVQLQELSLRLKSCFTKDYEEHDKACVRTFYETPLQLLEKVKNVFNETKNLLDKDWNIFSKNCNNSFAECSSQDVVTKPDCNCLYPKAIPSSDPASVSPHQPLAPSMAPVAGLTWEDSEGTEGSSLLPGEQPLHTVDPGSAKQRPPRSTCQSFEPPETPVVKDSTIGGSPQPRPSVGAFNPGMEDILDSAMGTNWVPEEASGEASEIPVPQGTELSPSRPGGGSMQTEPARPSNFLSASSPLPASAKGQQPADVTGTALPRVGPVRPTGQDWNHTPQKTDHPSALLRDPPEPGSPRISSLRPQGLSNPSTLSAQPQLSRSHSSGSVLPLGELEGRRSTRDRRSPAEPEGGPASEGAARPLPRFNSVPLTDTGHERQSEGSFSPQLQESVFHLLVPSVILVLLAVGGLLFYRWRRRSHQEPQRADSPLEQPEGSPLTQDDRQVELPV
[1]
  concentration of hrM-CSF at which extent of nuclear translocation of GFP-STAT1 reached the maximum: 600 ng/mL
  concentration of hrM-CSF at which nuclear translocation of GFP-STAT1 began: 10 ng/mL
[1]; n=6
  median effective concentration (EC50) of hrM-CSF for inducing GFP-STAT1 nuclear translocation: 0.0435 ± 0.00368 µg/mL
[2]
  treatment time at which extent of GFP-STAT1 nuclear translocation reached the maximum: 30 min
